Earlier results as cited in patent US20100086958A1, “NOVEL ENZYME” (priority 2008, published 2010).
Where two headings read alike, the source gives them in different places.

Key:
[1] = literature, cited from earlier work; for Km: read-out: Km NAD^+
[2] = literature, cited from earlier work; for Km: read-out: Km NADP^+
[3] = ADHs (DroADH, SceADH), AlaDHs, GAPDH

B1: WT_SceADH: wild type ADH from Saccharomyces cerevisiae (protein, UniProt P00330 2-348, looked up)
Alcohol dehydrogenase 1: SIPETQKGVIFYESHGKLEYKDIPVPKPKANELLINVKYSGVCHTDLHAWHGDWPLPVKLPLVGGHEGAGVVVGMGENVKGWKIGDYAGIKWLNGSCMACEYCELGNESNCPHADLSGYTHDGSFQQYATADAVQAAHIPQGTDLAQVAPILCAGITVYKALKSANLMAGHWVAISGAAGGLGSLAVQYAKAMGYRVLGIDGGEGKEELFRSIGGEVFIDFTKEKDIVGAVLKATDGGAHGVINVSVSEAAIEASTRYVRANGTTVLVGMPAGAKCCSDVFNQVVKSISIVGSYVGNRADTREALDFFARGLVKSPIKVVGLSTLPEIYEKMEKGQIVGRYVVDTSK
For B1, the “kcat NAD^+” value [1, 3] is given as 360 s⁻¹ and the Km [1, 3] is given as 160 µM.

B2: WT_17β-HSDHs: wild type human estrogenic 17β-hydroxysteroid dehydrogenase (protein, UniProt P14061 2-328, looked up)
17-beta-hydroxysteroid …: ARTVVLITGCSSGIGLHLAVRLASDPSQSFKVYATLRDLKTQGRLWEAARALACPPGSLETLQLDVRDSKSVAAARERVTEGRVDVLVCNAGLGLLGPLEALGEDAVASVLDVNVVGTVRMLQAFLPDMKRRGSGRVLVTGSVGGLMGLPFNDVYCASKFALEGLCESLAVLLLPFGVHLSLIECGPVHTAFMEKVLGSPEEVLDRTDIHTFHRFYQYLAHSKQVFREAAQNPEEVAEVFLTALRAPKPTLRYFTTERFLPLLRMRLDDPSGSNYVTAMHREVFGDVPAKAEAGAEAGGGAGPGAEDEAGRGAVGDPELGDPPAAPQ
In the case of B2, the “kcat NADP^+” value ([2]; 17β-HSDHs) is listed as 4.2 ± 0.2 s⁻¹, the “kcat NAD^+” value ([1]; 17β-HSDHs) is listed as 7.5 ± 0.1 s⁻¹ and the Km ([1]; 17β-HSDHs) is listed as 11.8 ± 0.8 µM.

B3: L36D 17β-HSDHs: L36D mutant of human estrogenic 17β-hydroxysteroid dehydrogenase (protein, UniProt P14061 2-328, looked up, variant L36D)
17-beta-hydroxysteroid …: ARTVVLITGCSSGIGLHLAVRLASDPSQSFKVYATDRDLKTQGRLWEAARALACPPGSLETLQLDVRDSKSVAAARERVTEGRVDVLVCNAGLGLLGPLEALGEDAVASVLDVNVVGTVRMLQAFLPDMKRRGSGRVLVTGSVGGLMGLPFNDVYCASKFALEGLCESLAVLLLPFGVHLSLIECGPVHTAFMEKVLGSPEEVLDRTDIHTFHRFYQYLAHSKQVFREAAQNPEEVAEVFLTALRAPKPTLRYFTTERFLPLLRMRLDDPSGSNYVTAMHREVFGDVPAKAEAGAEAGGGAGPGAEDEAGRGAVGDPELGDPPAAPQ
In the case of B3, the “kcat NADP^+” value ([2]; 17β-HSDHs) is listed as 16.7 ± 2.2 s⁻¹, the “kcat NAD^+” value ([1]; 17β-HSDHs) is listed as 13.9 ± 0.8 s⁻¹ and the Km ([1]; 17β-HSDHs) is listed as 83 ± 5 µM.

B4: WT_BstGAPDH: wild type glyceraldehydes-3-phosphate dehydrogenase from Bacillus stearothermophilus (protein, UniProt P00362 2-335, looked up)
Glyceraldehyde-3-phosphate …: AVKVGINGFGRIGRNVFRAALKNPDIEVVAVNDLTDANTLAHLLKYDSVHGRLDAEVSVNGNNLVVNGKEIIVKAERDPENLAWGEIGVDIVVESTGRFTKREDAAKHLEAGAKKVIISAPAKNEDITIVMGVNQDKYDPKAHHVISNASCTTNCLAPFAKVLHEQFGIVRGMMTTVHSYTNDQRILDLPHKDLRRARAAAESIIPTTTGAAKAVALVLPELKGKLNGMAMRVPTPNVSVVDLVAELEKEVTVEEVNAALKAAAEGELKGILAYSEEPLVSRDYNGSTVSSTIDALSTMVIDGKMVKVVSWYDNETGYSHRVVDLAAYIASKGL
In the case of B4, the “kcat NAD^+” value [1, 3] is given as 280 s⁻¹ and the Km [1, 3] is given as 150 µM.

B5: WT_PstXDH: wild type xylitol dehydrogenase from Pichia stipitis (protein, UniProt P22144 1-363, looked up)
D-xylulose reductase: MTANPSLVLNKIDDISFETYDAPEISEPTDVLVQVKKTGICGSDIHFYAHGRIGNFVLTKPMVLGHESAGTVVQVGKGVTSLKVGDNVAIEPGIPSRFSDEYKSGHYNLCPHMAFAATPNSKEGEPNPPGTLCKYFKSPEDFLVKLPDHVSLELGALVEPLSVGVHASKLGSVAFGDYVAVFGAGPVGLLAAAVAKTFGAKGVIVVDIFDNKLKMAKDIGAATHTFNSKTGGSEELIKAFGGNVPNVVLECTGAEPCIKLGVDAIAPGGRFVQVGNAAGPVSFPITVFAMKELTLFGSFRYGFNDYKTAVGIFDTNYQNGRENAPIDFEQLITHRYKFKDAIEAYDLVRAGKGAVKCLIDGPE
For B5, the “kcat NADP^+” value ([2]; ADHs (KlADH III), G6PDHs, XDHs) is listed as 1.83 ± 0.167 s⁻¹, the “kcat NAD^+” value ([1]; ADHs (KlADH III), G6PDHs, XDHs) is listed as 17.5 ± 0.5 s⁻¹ and the Km ([1]; ADHs (KlADH III), G6PDHs, XDHs) is listed as 381 ± 30 µM.

B6: WT_PstPTDH: wild type phosphate dehydrogenase from Pseudomonas stutzeri (protein, UniProt O69054 1-336, looked up)
Phosphonate dehydrogenase: MLPKLVITHRVHDEILQLLAPHCELMTNQTDSTLTREEILRRCRDAQAMMAFMPDRVDADFLQACPELRVVGCALKGFDNFDVDACTARGVWLTFVPDLLTVPTAELAIGLAVGLGRHLRAADAFVRSGEFQGWQPQFYGTGLDNATVGILGMGAIGLAMADRLQGWGATLQYHEAKALDTQTEQRLGLRQVACSELFASSDFILLALPLNADTQHLVNAELLALVRPGALLVNPCRGSVVDEAAVLAALERGQLGGYAADVFEMEDWARADRPRLIDPALLAHPNTLFTPHIGSAVRAVRLEIERCAAQNIIQVLAGARPINAANRLPKAEPAAC
In the case of B6, the “kcat NADP^+” value ([2]; PTDH) is listed as 1.41 ± 0.0083 s⁻¹, the Km ([2]; PTDH) is listed as 2510 ± 410 µM and the “kcat NAD^+” value ([1]; PTDH) is listed as 2.93 ± 0.14 s⁻¹. For the same molecule, the Km ([1]; PTDH) was 53 ± 9 µM.

B7: E175A PstPTDH: E175A mutant of phosphate dehydrogenase from Pseudomonas stutzeri (protein, UniProt O69054 1-336, looked up, variant E175A)
Phosphonate dehydrogenase: MLPKLVITHRVHDEILQLLAPHCELMTNQTDSTLTREEILRRCRDAQAMMAFMPDRVDADFLQACPELRVVGCALKGFDNFDVDACTARGVWLTFVPDLLTVPTAELAIGLAVGLGRHLRAADAFVRSGEFQGWQPQFYGTGLDNATVGILGMGAIGLAMADRLQGWGATLQYHAAKALDTQTEQRLGLRQVACSELFASSDFILLALPLNADTQHLVNAELLALVRPGALLVNPCRGSVVDEAAVLAALERGQLGGYAADVFEMEDWARADRPRLIDPALLAHPNTLFTPHIGSAVRAVRLEIERCAAQNIIQVLAGARPINAANRLPKAEPAAC
In the case of B7, the “kcat NADP^+” value ([2]; PTDH) is given as 2.18 ± 0.0067 s⁻¹, the Km ([2]; PTDH) is given as 144 ± 14 µM and the “kcat NAD^+” value ([1]; PTDH) is given as 3.5 ± 0.005 s⁻¹. The Km ([1]; PTDH) was 16 ± 0.8 µM.

B8: WT_DroADH: wild type ADH from Drosophila (protein, UniProt P00334 2-256, looked up)
Alcohol dehydrogenase: SFTLTNKNVIFVAGLGGIGLDTSKELLKRDLKNLVILDRIENPAAIAELKAINPKVTVTFYPYDVTVPIAETTKLLKTIFAQLKTVDVLINGAGILDDHQIERTIAVNYTGLVNTTTAILDFWDKRKGGPGGIICNIGSVTGFNAIYQVPVYSGTKAAVVNFTSSLAKLAPITGVTAYTVNPGITRTTLVHKFNSWLDVEPQVAEKLLAHPTQPSLACAENFVKAIELNQNGAIWKLDLGTLEAIQWTKHWDSGI
For B8, the “kcat NADP^+” value [2, 3] is given as 0.715 s⁻¹, the Km [2, 3] is given as 3090 ± 700 µM and the “kcat NAD^+” value [1, 3] is given as 10.2 s⁻¹. The Km [1, 3] was 48 ± 1 µM.

B9: A46R DroADH: A46R mutant of ADH from Drosophila (protein, UniProt P00334 2-256, looked up, variant A46R)
Alcohol dehydrogenase: SFTLTNKNVIFVAGLGGIGLDTSKELLKRDLKNLVILDRIENPARIAELKAINPKVTVTFYPYDVTVPIAETTKLLKTIFAQLKTVDVLINGAGILDDHQIERTIAVNYTGLVNTTTAILDFWDKRKGGPGGIICNIGSVTGFNAIYQVPVYSGTKAAVVNFTSSLAKLAPITGVTAYTVNPGITRTTLVHKFNSWLDVEPQVAEKLLAHPTQPSLACAENFVKAIELNQNGAIWKLDLGTLEAIQWTKHWDSGI
In the case of B9, the “kcat NADP^+” value [2, 3] is listed as 1.9 s⁻¹, the Km [2, 3] is listed as 1270 ± 100 µM and the “kcat NAD^+” value [1, 3] is listed as 7.3 s⁻¹. The Km [1, 3] was 57 ± 3 µM.
